Measured values from article PMC11730874.

Tests used:
[1] = molecular target: T1, WT hRab23_(7-172) (untagged) (human) (UniProt Q9ULC3)
T1 sequence: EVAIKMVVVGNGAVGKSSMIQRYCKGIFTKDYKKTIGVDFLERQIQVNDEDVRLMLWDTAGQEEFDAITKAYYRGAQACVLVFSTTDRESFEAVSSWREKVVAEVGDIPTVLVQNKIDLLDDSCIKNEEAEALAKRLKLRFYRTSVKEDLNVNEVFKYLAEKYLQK

[2] = molecular target: T2, hRab23_(7-172) Y79del (untagged) (human) (UniProt Q9ULC3)
T2 sequence: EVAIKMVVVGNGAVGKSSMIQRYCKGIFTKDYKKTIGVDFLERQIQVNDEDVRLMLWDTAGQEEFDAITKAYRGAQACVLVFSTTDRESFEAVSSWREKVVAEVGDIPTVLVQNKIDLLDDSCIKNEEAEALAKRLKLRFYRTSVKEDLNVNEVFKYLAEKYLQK

[3] = molecular target: T1, WT hRab23_(7-172) (untagged) (human); remark: listed apart in the source
[4] = molecular target: T2, hRab23_(7-172) Y79del (untagged) (human); remark: listed apart in the source
KIF17-mCitrine, Q9P2E2 = molecular target: T3, KIF17-mCitrine, Q9P2E2; assay: pull-down (His-tag magnetic beads) with Western blot densitometry; details: chain shown with the change; Rab23 proteins exchanged with GMPPNP; lysates from HEK293 cells transfected with KIF17-mCitrine; n = 3 independent experiments; parent: 100.00
T3 chain: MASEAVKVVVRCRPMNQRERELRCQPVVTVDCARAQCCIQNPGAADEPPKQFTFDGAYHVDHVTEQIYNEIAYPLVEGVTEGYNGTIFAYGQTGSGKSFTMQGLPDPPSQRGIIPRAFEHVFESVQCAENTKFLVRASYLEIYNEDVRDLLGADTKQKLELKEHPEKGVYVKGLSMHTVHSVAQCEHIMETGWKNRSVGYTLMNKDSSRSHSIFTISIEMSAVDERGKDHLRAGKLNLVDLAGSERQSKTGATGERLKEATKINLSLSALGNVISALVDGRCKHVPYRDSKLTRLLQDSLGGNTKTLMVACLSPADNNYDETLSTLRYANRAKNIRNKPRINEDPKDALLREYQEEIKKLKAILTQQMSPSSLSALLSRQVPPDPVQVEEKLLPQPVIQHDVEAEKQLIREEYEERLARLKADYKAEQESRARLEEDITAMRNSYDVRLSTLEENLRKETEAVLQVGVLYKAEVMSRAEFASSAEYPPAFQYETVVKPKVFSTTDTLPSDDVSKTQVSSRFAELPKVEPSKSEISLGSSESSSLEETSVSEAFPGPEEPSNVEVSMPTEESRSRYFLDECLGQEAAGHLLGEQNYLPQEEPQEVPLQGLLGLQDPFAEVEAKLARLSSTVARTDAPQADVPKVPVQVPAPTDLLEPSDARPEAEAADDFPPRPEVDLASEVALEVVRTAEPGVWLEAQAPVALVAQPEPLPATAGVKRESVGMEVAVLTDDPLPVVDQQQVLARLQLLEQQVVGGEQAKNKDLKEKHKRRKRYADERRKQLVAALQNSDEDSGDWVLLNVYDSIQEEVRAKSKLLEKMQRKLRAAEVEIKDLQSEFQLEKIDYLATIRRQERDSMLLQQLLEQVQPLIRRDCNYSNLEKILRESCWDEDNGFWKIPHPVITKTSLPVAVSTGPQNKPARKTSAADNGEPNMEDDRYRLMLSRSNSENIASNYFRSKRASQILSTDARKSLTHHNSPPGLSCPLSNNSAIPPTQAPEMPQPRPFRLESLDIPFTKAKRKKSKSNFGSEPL

B1: ecotropic viral integration site 5-like protein (EVI5L) (enzyme)
chain: MASPTLSPDSSSQEALSAPTCSPTSDSENLSPDELELLAKLEEQNRLLEADSKSMRSMNGSRRNSGSSLVSSSSASSNLSHLEEDTWILWGRIANEWEEWRRRKEKLLKELIRKGIPHHFRAIVWQLLCSATDMPVKNQYSELLKMSSPCEKLIRRDIARTYPEHEFFKGQDSLGQEVLFNVMKAYSLVDREVGYCQGSAFIVGLLLMQMPEEEAFCVFVRLMQEYRLRELFKPSMAELGLCIYQFEYMLQEQLPDLNTHFRSQSFHTSMYASSWFLTLFLTTFPLPVATRVFDIFMYEGLEIVFRVGLALLQVNQAELMQLDMEGMSQYFQRVIPHQFDSCPDKLVLKAYQVKYNPKKMKRLEKEYAAMKSKEMEEQIEIKRLRTENRLLKQRIETLEKGQVTRAQEAEENYVIKRELAVVRQQCSSAAEDLQKAQSTIRQLQEQQENPRLTEDFVSHLETELEQSRLRETETLGALREMQDKVLDMEKRNSSLPDENNVAQLQEELKALKVREGQAVASTRELKLQLQELSDTWQAHLARGGRWKESPRKLVVGELQDELMSVRLREAQALAEGRELRQRVVELETQDHIHRNLLNRVEAERAALQEKLQYLAAQNKGLQTQLSESRRKQAEAECKSKEEVMAVRLREADSMAAVAEMRQRIAELEIQREEGRIQGQLNHSDSSQYIRELKDQIEELKAEVRLLKGPPPFEDPLAFDGLSLARHLDEDSLPSSDEELLGVGVGAALQDALYPLSPRDARFFRRLERPAKDSEGSSDSDADELAAPYSQGLDN
GTPase-Glo luminescence (remaining GTP) relative to buffer control, GAP-stimulated GTPase activity; 3 uM Rab23, 2.25 uM EVI5L, 5 uM GTP, 20 mM EDTA, 30 °C, 2 h [1]: 58%
GTPase-Glo luminescence (remaining GTP) relative to buffer control, GAP-stimulated GTPase activity; 3 uM Rab23 Y79del, 2.25 uM EVI5L, 5 uM GTP, 20 mM EDTA, 30 °C, 2 h [2]: 75.7%

B2: Inturned-Fuzzy (Intu-Fuz) complex (complex)
chain 1: MASVASCDSRPSSDELPGDPSSQEEDEDYDFEDRVSDSGSYSSASSDYDDLEPEWLDSVQKNGELFYLELSEDEEESLLPETPTVNHVRFSENEIIIEDDYKERKKYEPKLKQFTKILRRKRLLPKRCNKKNSNDNGPVSILKHQSNQKTGVIVQQRYKDVNVYVNPKKLTVIKAKEQLKLLEVLVGIIHQTKWSWRRTGKQGDGERLVVHGLLPGGSAMKSGQVLIGDVLVAVNDVDVTTENIERVLSCIPGPMQVKLTFENAYDVKRETSHPRQKKTQSNTSDLVKLLWGEEVEGIQQSGLNTPHIIMYLTLQLDSETSKEEQEILYHYPMSEASQKLKSVRGIFLTLCDMLENVTGTQVTSSSLLLNGKQIHVAYWKESDKLLLIGLPAEEVPLPRLRNMIENVIQTLKFMYGSLDSAFCQIENVPRLDHFFNLFFQRALQPAKLHSSASPSAQQYDASSAVLLDNLPGVRWLTLPLEIKMELDMALSDLEAADFAELSEDYYDMRRLYTILGSSLFYKGYLICSHLPKDDLIDIAVYCRHYCLLPLAAKQRIGQLIIWREVFPQHHLRPLADSSTEVFPEPEGRYFLLVVGLKHYMLCVLLEAGGCASKAIGSPGPDCVYVDQVKTTLHQLDGVDSRIDERLASSPVPCLSCADWFLTGSREKTDSLTTSPILSRLQGTSKVATSPTCRRTLFGDYSLKTRKPSPSCSSGGSDNGCEGGEDDGFSPHTTPDAVRKQRESQGSDGLEESGTLLKVTKKKSTLPNPFHLGNLKKDLPEKELEIYNTVKLTSGPENTLFHYVALETVQGIFITPTLEEVAQLSGSIHPQLIKNFHQCCLSIRAVFQQTLVEEKKKGLNSGDHSDSAKSVSSLNPVKEHGVLFECSPGNWTDQKKAPPVMAYWVVGRLFLHPKPQELYVCFHDSVTEIAIEIAFKLFFGLTL
chain 2: MGEEGTGGTVHLLCLAASSGVPLFCRSSRGGAPARQQLPFSVIGSLNGVHMFGQNLEVQLSSARTENTTVVWKSFHDSITLIVLSSEVGISELRLERLLQMVFGAMVLLVGLEELTNIRNVERLKKDLRASYCLIDSFLGDSELIGDLTQCVDCVIPPEGSLLQEALSGFAEAAGTTFVSLVVSGRVVAATEGWWRLGTPEAVLLPWLVGSLPPQTARDYPVYLPHGSPTVPHRLLTLTLLPSLELCLLCGPSPPLSQLYPQLLERWWQPLLDPLRACLPLGPRALPSGFPLHTDILGLLLLHLELKRCLFTVEPLGDKEPSPEQRRRLLRNFYTLVTSTHFPPEPGPPEKTEDEVYQAQLPRACYLVLGTEEPGTGVRLVALQLGLRRLLLLLSPQSPTHGLRSLATHTLHALTPLL
GTPase-Glo luminescence (remaining GTP) relative to buffer control, GEF-aided nucleotide exchange; 3 uM Rab23, 2.25 uM Intu-Fuz, 5 uM GTP, 30 °C, 2 h [3]: 17.4%
GTPase-Glo luminescence (remaining GTP) relative to buffer control, GEF-aided nucleotide exchange; 3 uM Rab23 Y79del, 2.25 uM Intu-Fuz, 5 uM GTP, 30 °C, 2 h [4]: 78.2%

B3: His-SUMO-tagged WT hRab23_(7-172), GMPPNP-loaded, Q9ULC3 Y79del (protein)
chain: EVAIKMVVVGNGAVGKSSMIQRYCKGIFTKDYKKTIGVDFLERQIQVNDEDVRLMLWDTAGQEEFDAITKAYRGAQACVLVFSTTDRESFEAVSSWREKVVAEVGDIPTVLVQNKIDLLDDSCIKNEEAEALAKRLKLRFYRTSVKEDLNVNEVFKYLAEKYLQK
percent of parent (KIF17-mCitrine, Q9P2E2): 54.2%
